# Reference: doi:10.1101/2023.12.12.571217 (2023)
# Positions of bridges follow the written chain, without caps; N, C: chain ends.
# Columns and labels:
# [1] = target: T1, N-terminally biotinylated PADI4 (bio-His-PADI4), recombinant human peptidylarginine deiminase IV (human, UniProt Q9UM07 1-663, biotin on the N-terminal Avi-Tag (BirA co-expression)); assay: SPR
# PADI4 variant R394A = PADI4 variant R394A (human, UniProt Q9UM07 1-663, R394 with an alanine); assay: SPR
# PADI4 variant C166F = PADI4 variant C166F (human, UniProt Q9UM07 1-663, C166 with bulky phenylalanine); assay: SPR
# PADI4 variant C166F, sequence (Q9UM07 whole entry C166F): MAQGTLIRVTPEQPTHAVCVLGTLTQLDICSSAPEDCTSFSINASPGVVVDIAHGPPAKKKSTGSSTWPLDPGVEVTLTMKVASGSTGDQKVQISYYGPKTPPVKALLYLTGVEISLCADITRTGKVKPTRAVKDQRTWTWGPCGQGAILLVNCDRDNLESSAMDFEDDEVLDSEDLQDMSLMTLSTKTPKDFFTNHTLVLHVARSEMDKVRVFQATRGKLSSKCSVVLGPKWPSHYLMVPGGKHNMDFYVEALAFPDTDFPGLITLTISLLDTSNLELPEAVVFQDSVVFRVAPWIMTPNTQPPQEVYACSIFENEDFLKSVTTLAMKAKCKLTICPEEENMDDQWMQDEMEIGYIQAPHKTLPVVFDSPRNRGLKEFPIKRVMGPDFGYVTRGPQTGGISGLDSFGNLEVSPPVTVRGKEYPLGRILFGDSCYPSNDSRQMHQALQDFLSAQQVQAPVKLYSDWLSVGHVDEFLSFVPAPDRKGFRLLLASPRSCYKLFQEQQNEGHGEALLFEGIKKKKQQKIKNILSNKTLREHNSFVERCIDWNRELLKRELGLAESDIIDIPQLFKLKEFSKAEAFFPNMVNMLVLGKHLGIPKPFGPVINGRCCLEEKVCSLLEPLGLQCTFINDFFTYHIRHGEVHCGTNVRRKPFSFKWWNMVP
# [2] = target: T1, N-terminally biotinylated PADI4 …; assay: SPR; remark: listed apart in the source
# PADI4 variant D168A = PADI4 variant D168A (human, UniProt Q9UM07 1-663, D168A); assay: SPR
# PADI4 variant D168A, sequence (Q9UM07 whole entry D168A): as the sequence (Q9UM07 whole entry C166F) above, with F166C, D168A counted along it
# PADI4 variant E167A = PADI4 variant E167A (human, UniProt Q9UM07 1-663, E167A); assay: SPR
# PADI4 variant E167A, sequence (Q9UM07 whole entry E167A): as the sequence (Q9UM07 whole entry C166F) above, with F166C, E167A counted along it
# PADI4_D165A = PADI4_D165A (human, UniProt Q9UM07 1-663, D165A); assay: SPR
# PADI4_D165A, sequence (Q9UM07 whole entry D165A): as the sequence (Q9UM07 whole entry C166F) above, with D165A, F166C counted along it
# [3] = target: T1, N-terminally biotinylated PADI4 …; assay: SPR; 0 mM CaCl2
# [4] = target: T1, N-terminally biotinylated PADI4 …; assay: SPR; 10 mM CaCl2
# PADI4_N373A = assay: SPR
# [5] = target: T1, N-terminally biotinylated PADI4 …; assay: SPR; 10 mM CaCl2 + Cl-amidine
# T1 sequence (Q9UM07 whole entry): as the sequence (Q9UM07 whole entry C166F) above, with F166C counted along it
# PADI4 variant R394A, sequence (Q9UM07 whole entry R394A): as the sequence (Q9UM07 whole entry C166F) above, with F166C, R394A counted along it
Kd [1] [nM],Kd (PADI4 variant R394A) [nM],Kd (PADI4 variant C166F) [nM],Kd [2] [nM],Kd (PADI4 variant D168A) [nM],Kd (PADI4 variant E167A) [nM],Kd (PADI4_D165A) [nM],Kd [3] [nM],Kd [4] [nM],Kd (PADI4_N373A) [nM],Kd [5] [nM],Binder
1400,,,,,,,,,,,{CH2CO}-YESCKYRQVLQL-NH2 (thioether N-4) [PADI4_11 variant with lysine at R5]
700,,,,,,,,,,,{CH2CO}-YESCRYKQVLQL-NH2 (thioether N-4) [PADI4_11 variant with lysine at R7]
500,> 10000,> 10000,457,4000,700,3000,> 5000,457,> 10000,382,{CH2CO}-YESCRYRQVLQL-NH2 (thioether N-4; SMILES CC(C)C[C@H](NC(=O)[C@H](CCC(N)=O)NC(=O)[C@H](CC(C)C)NC(=O)[C@@H](NC(=O)[C@H](CCC(N)=O)NC(=O)[C@H](CCCNC(=N)N)NC(=O)[C@H](Cc1ccc(O)cc1)NC(=O)[C@H](CCCNC(=N)N)NC(=O)[C@@H]1CSCC(=O)N[C@@H](Cc2ccc(O)cc2)C(=O)N[C@@H](CCC(=O)O)C(=O)N[C@@H](CO)C(=O)N1)C(C)C)C(N)=O) [PADI4_11]
